Positions count from the first letter of the chain named.
How the values were obtained:
[1] = biological target: T1, human CEA (N-terminal domain) recombinant fragment containing a C-terminal 6xHis tag and a N-terminal BirA … (human, site specifically biotinylated using BirA (E. coli biotin ligase) at the BirA target sequence); test: SPR (BIAcore X100), monomeric scFv over biotinylated CEA N-terminal domain on streptavidin chip
T1 construct: Expressed in CHO-S cells and immobilised on a streptavidin chip for all BIAcore runs; also called biotinylated CEA; human CEA N-terminal fragment
T1 chain: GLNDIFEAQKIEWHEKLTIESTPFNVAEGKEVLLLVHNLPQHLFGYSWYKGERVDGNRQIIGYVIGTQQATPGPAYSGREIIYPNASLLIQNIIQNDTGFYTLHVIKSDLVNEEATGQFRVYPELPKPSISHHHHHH

[2] = biological target: T2, human carcinoembryonic antigen (CEA, CEACAM5) on cells or tumor tissue (human, UniProt P06731 35-685); test: immunofluorescence on LS174T tumor cryosections, FITC-labelled IgG1
T2 construct: whole, on cells; One entry covers all cell-based and tissue assays; also called human CEA
T2 sequence (looked up): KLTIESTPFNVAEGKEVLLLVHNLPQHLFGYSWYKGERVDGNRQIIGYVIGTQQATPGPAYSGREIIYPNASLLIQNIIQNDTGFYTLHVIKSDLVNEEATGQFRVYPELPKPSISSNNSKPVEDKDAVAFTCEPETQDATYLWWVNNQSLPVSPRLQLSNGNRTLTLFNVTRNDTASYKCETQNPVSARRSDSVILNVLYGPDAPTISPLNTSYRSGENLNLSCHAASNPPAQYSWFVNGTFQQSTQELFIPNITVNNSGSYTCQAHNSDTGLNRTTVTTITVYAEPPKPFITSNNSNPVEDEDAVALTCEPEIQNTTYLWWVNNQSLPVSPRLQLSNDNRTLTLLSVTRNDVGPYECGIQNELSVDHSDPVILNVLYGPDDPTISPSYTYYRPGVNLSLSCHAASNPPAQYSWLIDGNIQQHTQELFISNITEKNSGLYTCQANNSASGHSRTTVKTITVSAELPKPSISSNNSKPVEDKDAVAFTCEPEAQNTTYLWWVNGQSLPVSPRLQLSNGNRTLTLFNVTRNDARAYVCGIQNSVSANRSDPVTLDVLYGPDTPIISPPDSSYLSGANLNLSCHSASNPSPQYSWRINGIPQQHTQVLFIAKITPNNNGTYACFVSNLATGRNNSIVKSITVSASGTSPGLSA

[3] = biological target: T2, human carcinoembryonic antigen (CEA, …); test: cell-based or functional assay
[4] = biological target: T2, human carcinoembryonic antigen (CEA, …); test: flow cytometry titration on CT26-CEA cells, IgG1, PE anti-human IgG Fc detection; the CT26-wt curve stays near 0
[5] = biological target: T3, CEACAM1 transiently expressed on CHO cells (UniProt P13688 35-526, limits assumed); test: flow cytometry contour plots (SSC against fluorescence) on CHO cells transiently expressing CEACAM1
T3 construct: whole, on cells
T3 sequence (looked up): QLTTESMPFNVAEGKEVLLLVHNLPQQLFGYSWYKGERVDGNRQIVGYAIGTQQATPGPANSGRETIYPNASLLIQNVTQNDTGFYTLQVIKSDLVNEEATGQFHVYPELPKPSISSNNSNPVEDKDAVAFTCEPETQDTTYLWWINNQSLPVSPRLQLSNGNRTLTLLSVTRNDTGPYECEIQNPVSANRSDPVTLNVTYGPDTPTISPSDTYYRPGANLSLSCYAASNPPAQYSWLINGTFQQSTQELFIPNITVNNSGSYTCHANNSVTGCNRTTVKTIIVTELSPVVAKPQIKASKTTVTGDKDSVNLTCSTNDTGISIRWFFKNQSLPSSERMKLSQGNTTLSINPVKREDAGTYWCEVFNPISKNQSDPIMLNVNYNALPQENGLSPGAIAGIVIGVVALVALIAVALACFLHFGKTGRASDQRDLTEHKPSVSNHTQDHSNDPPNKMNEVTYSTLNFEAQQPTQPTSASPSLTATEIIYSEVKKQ

[6] = biological target: T4, CEACAM6 transiently expressed on CHO cells (UniProt P40199 35-320, limits assumed); test: flow cytometry contour plots (SSC against fluorescence) on CHO cells transiently expressing CEACAM6
T4 construct: whole, on cells
T4 sequence (looked up): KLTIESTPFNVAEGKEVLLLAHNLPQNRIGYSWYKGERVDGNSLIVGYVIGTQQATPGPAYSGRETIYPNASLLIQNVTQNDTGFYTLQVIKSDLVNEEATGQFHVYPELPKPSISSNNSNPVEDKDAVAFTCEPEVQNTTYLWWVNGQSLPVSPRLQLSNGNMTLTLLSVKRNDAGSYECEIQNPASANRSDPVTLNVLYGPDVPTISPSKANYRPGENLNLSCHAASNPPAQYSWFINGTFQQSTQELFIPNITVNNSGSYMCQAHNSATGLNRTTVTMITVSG

B1: F7 antibody in scFv format (scFv)
scFv: EVQLLESGGGLVQPGGSLRLSCAASGFTFSRTAMSWVRQAPGKGLEWVSAISGSGGSTYYADSVKGRFTISRDNSKNTLYLQMNSLRAEDTAVYYCAKLTYARFDYWGQGTLVTVSSGGGGSGGGGSGGGGEIVLTQSPGTLSLSPGERATLSCRASQSVSFPYLAWYQQKPGQAPRLLIYGASSRATGIPDRFSGSGSGTDFTLTISRLEPEDFAVYYCQQSGRVPWTFGQGTKVEIK
notes: also called F7 scFv
- Kd [1]: 50 nM

B2: PEA2 antibody in scFv format (scFv)
scFv: B1 scFv with S52D, G53Y, S54D, S57V, F162Q, P163N, Y164H, G182L, S185R, A187H
notes: also called PEA2 scFv
- Kd [1]: 7.7 nM

B3: anti-hen egg lysozyme antibody KSF in IgG1 format (antibody, V domains shown)
VH: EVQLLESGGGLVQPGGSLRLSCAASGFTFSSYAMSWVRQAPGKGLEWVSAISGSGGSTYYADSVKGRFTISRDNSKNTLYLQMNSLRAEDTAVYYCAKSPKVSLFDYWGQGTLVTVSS
VL: SSELTQDPAVSVALGQTVRITCQGDSLRSYYASWYQQKPGQAPVLVIYGKNNRPSGIPDRFSGSSSGNTASLTITGAQAEDEADYYCNSSPLNRLAVVFGGGTKLTVLG
notes: Negative control; It was conjugated to FITC for the immunofluorescence experiments; also called KSF IgG1; KSF (IgG1)
- binding result [2]: no binding (tested: 10 ug/mL)

B4: PEA2-anti-CD3 (PUB4) bispecific antibody in scFv-IgG4 KIH format (bispecific antibody)
heavy 1: EVQLVESGGGLVQPGGSLRLSCAASGFTFSTYAMNWVRQAPGKGLEWVGRIRSKYNNYATYYADSVKDRFTISRDDSKNSLYLQMNSLKTEDTAVYYCVRHGNFGNSYVSWFAYWGQGTLVTVSSGGGGSGGGGSGGGGSQAVVTQEPSLTVSPGGTVTLTCRSSTGAVTTSNYANWVQQKPGQAPRGLIGGTNKRAPWTPARFSGSLLGGKAALTITGAQAEDEADYYCALWYSNLWVFGGGTKLTVLGGGGSGGGGSGGGGSEVQLLESGGGLVQPGGSLRLSCAASGFTFSRTAMSWVRQAPGKGLEWVSAIDYDGGVTYYADSVKGRFTISRDNSKNTLYLQMNSLRAEDTAVYYCAKLTYARFDYWGQGTLVTVSSASTKGPSVFPLAPCSRSTSESTAALGCLVKDYFPEPVTVSWNSGALTSGVHTFPAVLQSSGLYSLSSVVTVPSSSLGTKTYTCNVDHKPSNTKVDKRVESKYGPPCPPCPAPEFLGGPSVFLFPPKPKDTLMISRTPEVTCVVVDVSQEDPEVQFNWYVDGVEVHNAKTKPREEQFNSTYRVVSVLTVLHQDWLNGKEYKCKVSNKGLPSSIEKTISKAKGQPREPQVYTLPPCQEEMTKNQVSLWCLVKGFYPSDIAVEWESNGQPENNYKTTPPVLDSDGSFFLYSRLTVDKSRWQEGNVFSCSVMHEALHNHYTQKSLSLSLGK
heavy 2: EVQLLESGGGLVQPGGSLRLSCAASGFTFSRTAMSWVRQAPGKGLEWVSAIDYDGGVTYYADSVKGRFTISRDNSKNTLYLQMNSLRAEDTAVYYCAKLTYARFDYWGQGTLVTVSSASTKGPSVFPLAPCSRSTSESTAALGCLVKDYFPEPVTVSWNSGALTSGVHTFPAVLQSSGLYSLSSVVTVPSSSLGTKTYTCNVDHKPSNTKVDKRVESKYGPPCPPCPAPEFLGGPSVFLFPPKPKDTLMISRTPEVTCVVVDVSQEDPEVQFNWYVDGVEVHNAKTKPREEQFNSTYRVVSVLTVLHQDWLNGKEYKCKVSNKGLPSSIEKTISKAKGQPREPQVCTLPPSQEEMTKNQVSLSCAVKGFYPSDIAVEWESNGQPENNYKTTPPVLDSDGSFFLVSRLTVDKSRWQEGNVFSCSVMHEALHNHYTQKSLSLSLGK
light: EIVLTQSPGTLSLSPGERATLSCRASQSVSQNHLAWYQQKPGQAPRLLIYLASRRHTGIPDRFSGSGSGTDFTLTISRLEPEDFAVYYCQQSGRVPWTFGQGTKVEIKRTVAAPSVFIFPPSDEQLKSGTASVVCLLNNFYPREAKVQWKVDNALQSGNSQESVTEQDSKDSTYSLSSTLTLSKADYEKHKVYACEVTHQGLSSPVTKSFNRGEC
- EC50, target cell killing (LS174T cells with human PBMCs, 5 days) [3]: 140000 nM

B5: PEA2-anti-CD3 (PUB4) bispecific antibody in scDb-scFv with Fc KIH format (bispecific antibody, human IgG4 S228P)
heavy 1: EVQLLESGGGLVQPGGSLRLSCAASGFTFSRTAMSWVRQAPGKGLEWVSAIDYDGGVTYYADSVKGRFTISRDNSKNTLYLQMNSLRAEDTAVYYCAKLTYARFDYWGQGTLVTVSSGGSGGEIVLTQSPGTLSLSPGERATLSCRASQSVSQNHLAWYQQKPGQAPRLLIYLASRRHTGIPDRFSGSGSGTDFTLTISRLEPEDFAVYYCQQSGRVPWTFGQGTKVEIKGGGGSGGGGSGGGGSEVQLLESGGGLVQPGGSLRLSCAASGFTFSRTAMSWVRQAPGKGLEWVSAIDYDGGVTYYADSVKGRFTISRDNSKNTLYLQMNSLRAEDTAVYYCAKLTYARFDYWGQGTLVTVSSGGSGGEIVLTQSPGTLSLSPGERATLSCRASQSVSQNHLAWYQQKPGQAPRLLIYLASRRHTGIPDRFSGSGSGTDFTLTISRLEPEDFAVYYCQQSGRVPWTFGQGTKVEIKGSESKYGPPCPPCPAPEFLGGPSVFLFPPKPKDTLMISRTPEVTCVVVDVSQEDPEVQFNWYVDGVEVHNAKTKPREEQFNSTYRVVSVLTVLHQDWLNGKEYKCKVSNKGLPSSIEKTISKAKGQPREPQVYTLPPCQEEMTKNQVSLWCLVKGFYPSDIAVEWESNGQPENNYKTTPPVLDSDGSFFLYSRLTVDKSRWQEGNVFSCSVMHEALHNHYTQKSLSLSLGK
heavy 2: EVQLVESGGGLVQPGGSLRLSCAASGFTFSTYAMNWVRQAPGKGLEWVGRIRSKYNNYATYYADSVKDRFTISRDDSKNSLYLQMNSLKTEDTAVYYCVRHGNFGNSYVSWFAYWGQGTLVTVSSGGGGSGGGGSGGGGSQAVVTQEPSLTVSPGGTVTLTCRSSTGAVTTSNYANWVQQKPGQAPRGLIGGTNKRAPWTPARFSGSLLGGKAALTITGAQAEDEADYYCALWYSNLWVFGGGTKLTVLGSESKYGPPCPPCPAPEFLGGPSVFLFPPKPKDTLMISRTPEVTCVVVDVSQEDPEVQFNWYVDGVEVHNAKTKPREEQFNSTYRVVSVLTVLHQDWLNGKEYKCKVSNKGLPSSIEKTISKAKGQPREPQVCTLPPSQEEMTKNQVSLSCAVKGFYPSDIAVEWESNGQPENNYKTTPPVLDSDGSFFLVSRLTVDKSRWQEGNVFSCSVMHEALHNHYTQKSLSLSLGK
- EC50, target cell killing (LS174T cells with human PBMCs, 5 days) [3]: 40 PM
- fold potency in target cell killing against the scFvCD3-IgGCEA KIH format [3]: 3.5 fold

B6: F7 antibody in IgG1 format (antibody, V domains shown)
VH: EVQLLESGGGLVQPGGSLRLSCAASGFTFSRTAMSWVRQAPGKGLEWVSAISGSGGSTYYADSVKGRFTISRDNSKNTLYLQMNSLRAEDTAVYYCAKLTYARFDYWGQGTLVTVSS
VL: EIVLTQSPGTLSLSPGERATLSCRASQSVSFPYLAWYQQKPGQAPRLLIYGASSRATGIPDRFSGSGSGTDFTLTISRLEPEDFAVYYCQQSGRVPWTFGQGTKVEIK
notes: also called F7 IgG
- EC50 [4]: 0.77 nM

B7: PEA2 antibody in IgG1 format (antibody, V domains shown)
VH: B6 VH with S52D, G53Y, S54D, S57V
VL: EIVLTQSPGTLSLSPGERATLSCRASQSVSQNHLAWYQQKPGQAPRLLIYLASRRHTGIPDRFSGSGSGTDFTLTISRLEPEDFAVYYCQQSGRVPWTFGQGTKVEIKR
notes: also called PEA2 IgG1; PEA2 (IgG1)
- EC50 [4]: 0.29 nM

B8: PEA2 antibody as used in Example 8 (flow cytometry on transfected CHO cells) (antibody, V domains shown)
VH: B6 VH with S52D, G53Y, S54D, S57V
VL: B6 VL with F31Q, P32N, Y33H, G51L, S54R, A56H
notes: also called antibody PEA2
- binding result [5]: no binding (tested: 50 nM)
- binding result [6]: no binding (tested: 50 nM)
